According to the DeepSol protein solubility set:

Experiment: soluble on expression in E. coli; label from the status in PepcDB or PDB records

For “MKVDLNSDLGESFGRYKLGLDDEVMKYITSANVACGWHAGDPLVMRKTVRLAKKNNVQVGAHPGYPDLMGFGRRYMKLTPEEARNYILYQIGALYAFVKAEGLELQHVKPHGALYNAMVKEEDLARAVIEGILDFDKRLIVVTLAGSRVVEIAREMGARVAQEGFADRAYNPDGTLVPRSRPGAVIEDKEEIAERVISMVKDGGIRAINGEWIELEVDTICVHGDNPKAVEITAYIRRRLEEEGVKVLPMGDFIK”, which “soluble on expression in E. coli” value is on record?
Its value is “soluble”.

With “ADMGEKFDATFKAQVKAAKADMVMLSPKDAYKLLQENPDITLIDVRDPDELKAMGKPDVKNYKHMSRGKLEPLLAKSGLDPEKPVVVFCKTAARAALAGKTLREYGFKTIYNSEGGMDKWLEEGLPSLDRSHHHHHH” as the sequence, how does the “soluble on expression in E. coli” value read?
Its value is “soluble”.

Which “soluble on expression in E. coli” value does the source give for “MGLFDRLKRVVGANVNDLINKAEDPEKMLEQAILEMQEDLVQLRQGVAQAIAAQKRTEKQYNDAQNEINKWDRNARLALQKGDENLARQALERKKSFTDTSTSLKTSLDQQTIQVDTLKKNLIQLESKISEAKTKKEMLKARITAAKAQEQLGSMVVSMNSSSAMAAFERMEEKVLMQEARAQSTAELVGADLETQFAQLESGSDVDDELAALKASMLPPAPAPQGQLPPSQATTAKPTEPIDSDLEALKRQLDQM” here?
The value was “not soluble”.

Which “soluble on expression in E. coli” value does the source give for “TWILTADSPSLLGTVDVVTRYLFEQRCYVTEHHSFDDRLAQRFFIRVEFRAGDGFDEASFRAGLAERVAPFGMRTELTAPGYRSQVAIMVSKADHCLNDLLYRQRIGQLPMDVVAVISNHPDLEPLARWHGIPYHHFPLDPNDKPAQEARVWQVLEESGAELVILARYMQVLSPELCRRLDGWAINIHHSLLPGFKGAKPYHQAYQKGVKLVGATAHYINNDLDEGPIIAQGVETVDHAHYPEDLIAKGRDIECLTLARAVGYHIERRVFLNANRTVVL” here?
The value was “not soluble”.

With “SLYENDYVKKTQVWPSGGQMTVKNLSANYIDGGNTVLENISFSLSPGQRVGLLGRTGSGKSTLLSAFLRLLSTQGDIQIDGVSWQTIPLEKWRKAFGVIPQKVFIFSGSIRKNLDPYGKWSDEELLKVTEEVGLKLIIDQFPGQLDFVLLDGGCVLSHGHKQLVCLARSVLSKAKILLLDEPSAHLDPITFQIIRKTLKHAFADCTVILSEARLEAMLECDRFLVIEDNTVRQYDSIQKLVNEKSDFKQAISHSD” as the sequence, how does the “soluble on expression in E. coli” value read?
Its value is “soluble”.

With “MAHHHHHHMENIENIENIEKIHLTDDGGVIKTILRKGNEGEENVPKKGNEVTVHYIGKLESDGSIFDSSRQRDVPFKFHLGNGEVIKGWDICVASMKKNEKCLVRLDSKYGYGKEGCGETIPGNSVLIFEIELLSFKEAKKNIYDYTDEEKIQAAFELKDEGNEFFKKNEINEAIAKYKEALDYFMHTDEWEDELLEKKKNIQIICNLNLSTCYNKNKDYPNAIEHASKVLKLDKNNVKGLYKLGVANMNFGFLEEAKINLYKAASLNPKNLDIRNSYELCIAKLKEARKKDQITFG” as the sequence, how does the “soluble on expression in E. coli” value read?
Its value is “soluble”.

With “MGSDKIHHHHHHMKISICGKGGCGKSSITTLLAKEFAKKGHNVLVIDGDESNLSLHKLLGMDLPKDFIEYLGGRKEFMKKLREKMDGKEVELFEGEISIDSLPKEYLVEKDNIKLLAIGKIHDFGEGCACPMGALLREFLKSLKLKDKEVVIVDTEAGIEHFGRGVEGGCDVIIAIIDPTYESIRLSKKIEEIGEKLGKKVYFIVNKVDDETKDLILENVNKDKVIAVIPNNKEIMKCGLMGEELNAELSEIKDVVEILTK” as the sequence, how does the “soluble on expression in E. coli” value read?
The value was “not soluble”.

Which “soluble on expression in E. coli” value does the source give for “MSLTEKKCTVMLSKFKRNKHQQHLAQLPKISQSVDDVDFFYAPADFRETLLEKIASAKQRICIVALYLEQDDGGKGILNALYEAKRQRPELDVRVLVDWHRAQRGRIGAAASNTNADWYCRMAQENPGVDVPVYGVPINTREALGVLHFKGFIIDDSVLYSGASLNDVYLHQHDKYRYDRYHLIRNRKMSDIMFEWVTQNIMNGRGVNRLDDVNRPKSPEIKNDIRLFRQELRDAAYHFQGDADNDQLSVTPLVGLGKSSLLNKTIFHLMPCAEQKLTICTPYFNLPAILVRNIIQLLREGKKVEIIVGDKTANDFYIPEDEPFKIIGALPYLYEINLRRFLSRLQYYVNTDQLVVRLWKDDDNTYHLKGMWVDDKWMLITGNNLNPRAWRLDLENAILIHDPQLELAPQREKELELIREHTTIVKHYRDLQSIADYPVKVRKLIRRLRRIRIDRLISRILEGHHHHHH” here?
The value was “not soluble”.

For “MKFTFEVPAPLQQVAPISYYESLLSNYRYRDISFLEMSTTGKILGECTIGENNYTIQGSECDGLISSIEILDVKEADSFLDIPLSLPNRKFVKALKDLGIEFDHDRDGVTIHHENRVIALSYQFGKVAAICWDSE”, which “soluble on expression in E. coli” value is on record?
Its value is “not soluble”.

For “MGSDKIHHHHHHMDNVPEPSSEKFRAYRQKLLDQLETSSQGERHRAQYELELMRNSHFVKVGGLLHHYHDSGPENPRGTVLLIHGWDCWWMWWHRIIRELNAAGYRTVAYDMKGHGWSENDPENRYQIADFVRDLDELIRAIGLKDLHIAAFSFGPFVALDYVNTYPNSVRSMVFFNFGYLPNSEFISKVAPATIIFIFNIMMRKLTWWLPAYIFARLVLSRNSVMMHDIKVGFESLGFCASEAIEQTAQQITAMETTQMLPDMVRAVRVPILFAAGEGDVIMTCENARKLQEMTPSGSYLCVPDCGHLITLELPQTAAEIVLQHISSNS”, which “soluble on expression in E. coli” value is on record?
Its value is “not soluble”.

With “MNSFKKFLNKKRVQNHFKKSGEGVRLSSGESSSQPSAHAGAAQGGQIDRVAAADIAAQAAFKRMQKNEPQQNAGKRRIQMIAKRELEEERRQVEDLNISGTSSLQQPDREQHLEHSSAISRVLYTSELLGEHHIRSKADLLEDIKNFLSDQISEADDENDKVIAAVLMLYSLNKKHPKETAIETICKYCQNILEHPGEDKYKSIRLGNKAFQERVASVVGGRAFLEAVGFTEKSEGEDKFLVFTKPSDVHLVEALEALKDGQAVPIKVARNLEIFKLKEGQKPKAPKLADDFYNLSTAELKAEQRNKEMQVERMLTLRTKEMRQKDEQMTNYRYKYTLIRVRLPGNLLMQGVFGCHEPFSAVRVFVASTLSDALSTSEFTLRDAASQLVEDESASLAQLSLAPAALLHVVFAENLSDYGQIVADEHIEIIQELEASD” as the sequence, how does the “soluble on expression in E. coli” value read?
Its value is “not soluble”.

Which “soluble on expression in E. coli” value does the source give for “TEELEKAYDSLKESEEHLRLTLEGSKAGMWMWDLRANWKITPQMNALLGRSESSPIKYEEFISMIHPEDQERVAQAWNKAIECKDFYDQEYRIFLPDGSIHWLSSKGSVIELHSGIRQLMGITTDIT” here?
The value was “not soluble”.

Which “soluble on expression in E. coli” value does the source give for “MPSLFKRSLLPKLRSFPLAAEAFTTLTGAAQFRRTLLEQIAQARRRIYIVALYLQQDEAGQEILDALHAAKAARPELEVVVVVDWLRAQRGLIGAGKQPGNSAWYQQMTRTHASEVPIYGVPVQTRELFGVLHLKGFIIDDCVLYSGASLNNVYLHKFDKYRFDRYHLLHNQALADSMHHLVQHGLVESRAVHRLDLPNLPTTRSLRNDIGDLRSRLKHATYDTTAGGLDKSGLSVSPLLGVGKGNPLNRVICELIAGAQRQLTICTPYFNLPLPVTREINRALERGVKIDIIVGDKTANDFYIPPSEPFKVIAALPYLYEISLRRFAKRHQKVIDNGQLNLHLWRDGDNTYHLKGMWVDERYTLLTGNNLNPRAFRLDLENALLLDDPKGELLQARNAEQAEIYRHTRRIEHFQYLDSLVDYPEAVGKFLRRVSRVRIERLLYRMLLEHHHHHH” here?
Its value is “not soluble”.

Which “soluble on expression in E. coli” value does the source give for “MNSRIMFIGGVPGVGKTSISGYIARNTDIDIVLSSDYLREFLRPFAPQESHLETSVYDAWKFYGDMSDDNIIRGYLDQARPIMGGINRVIARALANGEDLIIESLYFVPDMMDEMVLKNAFLAYVYIDDPDLHRSRLEDRINYTHRNSPGSRLAAHLKEYRTIMDYSMDMARGRGIGLYSTDDYALARQRLLDDFRKFVDRR” here?
Its value is “not soluble”.

Which “soluble on expression in E. coli” value does the source give for “MLRYLLLSMYLFYIKKRRCHHFFIIVNIILSVSMQNDNLPFKITACVYKIV” here?
The value was “not soluble”.

For “MGSDKIHHHHHHMDINFEYYKIFYYVAKYCNFTKAARALGNSQPNVTRAMNNLEQQINSILFIRNNRGVQLTPEGERLYAHVSAAMSQILAAEEELSDSIGLSHGSVSIGASETALNIYLLDRLKPFHMAYPGIRLKIYNHSTPQAINAVKNGMIDFAVVSTPAEVEAPLKMIKLGSFQEILVGGTTFTALGSQTLSLKELHNYPLIGLGRETMTFQFFNRLFMSHGLEFAPDTETATTDQILPLVKSELGLAFMPKPMAEAAIANREIVEIALEEEIPQRNICMVYDIHQPISAAARELKKVISDSHKV”, which “soluble on expression in E. coli” value is on record?
The value was “not soluble”.
